According to patent publication US20180155451A1 (published 2018):

T1: FcγRIIa H (human, UniProt P12318 34-217)
T1 construct: extracellular domain; also called FcgRIIa H type; 2aH; not shown: His tag at the C terminus
T1 sequence (looked up): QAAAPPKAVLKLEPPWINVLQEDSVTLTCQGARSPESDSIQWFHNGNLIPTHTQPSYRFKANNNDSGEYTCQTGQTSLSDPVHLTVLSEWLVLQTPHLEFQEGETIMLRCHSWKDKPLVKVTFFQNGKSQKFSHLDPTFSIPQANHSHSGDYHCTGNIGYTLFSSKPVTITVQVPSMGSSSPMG

B1: GpH7-B3 variant T335_19Q/GpL16-k0 (antibody, human IgG1, kappa)
heavy: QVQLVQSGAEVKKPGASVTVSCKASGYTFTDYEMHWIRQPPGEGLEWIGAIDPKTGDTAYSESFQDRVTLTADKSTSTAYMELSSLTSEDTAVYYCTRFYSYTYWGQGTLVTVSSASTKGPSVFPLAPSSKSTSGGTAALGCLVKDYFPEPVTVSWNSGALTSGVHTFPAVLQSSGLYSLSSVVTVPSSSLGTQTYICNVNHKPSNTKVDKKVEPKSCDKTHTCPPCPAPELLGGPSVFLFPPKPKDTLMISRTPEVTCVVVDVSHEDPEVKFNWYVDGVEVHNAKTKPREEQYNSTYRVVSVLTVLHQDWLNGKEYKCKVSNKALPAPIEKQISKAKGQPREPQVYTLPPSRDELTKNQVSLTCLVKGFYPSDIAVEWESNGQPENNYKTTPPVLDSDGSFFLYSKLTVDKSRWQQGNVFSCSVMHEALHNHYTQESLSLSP
light: DIVMTQSPLSLPVTPGEPASISCQASESLVHSNRNTYLHWYLQKPGQSPQLLIYKVSNRFSGVPDRFSGSGSGTDFTLKISRVEAEDVGVYYCSQNTHVPPTFGQGTKVEIERTVAAPSVFIFPPSDEQLKSGTASVVCLLNNFYPREAKVQWKVDNALQSGNSQESVTEQDSKDSTYSLSSTLTLSKADYEKHKVYACEVTHQGLSSPVTKSFNRGEC
notes: also called Ho Ab T335_19Q
B2: GpH7-A5/GpH7-B3 variant I332_02A/GpL16-k0 (antibody, human IgG1, kappa)
heavy 1: not shown
heavy 2: not shown
light: B1 light
notes: also called He Ab I332_02A
B3: GpH7-A5/GpH7-B3 variant I332_18N/GpL16-k0 (antibody, human IgG1, kappa)
heavy 1: not shown
heavy 2: not shown
light: B1 light
notes: also called He Ab I332_18N
B4: GpH7-A5/GpH7-B3 variant I332_14T/GpL16-k0 (antibody, human IgG1, kappa)
heavy 1: not shown
heavy 2: not shown
light: B1 light
notes: also called He Ab I332_14T
B5: GpH7-A5/GpH7-B3 variant I332_10E/GpL16-k0 (antibody, human IgG1, kappa)
heavy 1: not shown
heavy 2: not shown
light: B1 light
notes: also called He Ab I332_10E
B6: GpH7-A5/GpH7-B3 variant H268_18N/GpL16-k0 (antibody, human IgG1, kappa)
heavy 1: not shown
heavy 2: not shown
light: B1 light
notes: also called He Ab H268_18N
B7: GpH7-A5/GpH7-B3 variant I332_09D/GpL16-k0 (antibody, human IgG1, kappa)
heavy 1: not shown
heavy 2: not shown
light: B1 light
notes: also called He Ab I332_09D
B8: GpH7-A5/GpH7-B3 variant A330_12R/GpL16-k0 (antibody, human IgG1, kappa)
heavy 1: not shown
heavy 2: not shown
light: B1 light
notes: also called He Ab A330_12R
B9: GpH7-A5/GpH7-B3 variant H268_09D/GpL16-k0 (antibody, human IgG1, kappa)
heavy 1: not shown
heavy 2: not shown
light: B1 light
notes: also called He Ab H268_09D
B10: GpH7-A5/GpH7-B3 variant I332_19Q/GpL16-k0 (antibody, human IgG1, kappa)
heavy 1: not shown
heavy 2: not shown
light: B1 light
notes: also called He Ab I332_19Q
B11: GpH7-A5/GpH7-B3 variant I332_16H/GpL16-k0 (antibody, human IgG1, kappa)
heavy 1: not shown
heavy 2: not shown
light: B1 light
notes: also called He Ab I332_16H
B12: GpH7-A5/GpH7-B3 variant I332_15Y/GpL16-k0 (antibody, human IgG1, kappa)
heavy 1: not shown
heavy 2: not shown
light: B1 light
notes: also called He Ab I332_15Y
B13: GpH7-A5/GpH7-B3 variant G236_03V/GpL16-k0 (antibody, human IgG1, kappa)
heavy 1: not shown
heavy 2: not shown
light: B1 light
notes: also called He Ab G236_03V
B14: GpH7-A5/GpH7-B3 variant I336_08L/GpL16-k0 (antibody, human IgG1, kappa)
heavy 1: not shown
heavy 2: not shown
light: B1 light
notes: also called He Ab I336_08L
B15: GpH7-A5/GpH7-B3 variant G236_07I/GpL16-k0 (antibody, human IgG1, kappa)
heavy 1: not shown
heavy 2: not shown
light: B1 light
notes: also called He Ab G236_07I
B16: GpH7-A5/GpH7-B3 variant I336_06M/GpL16-k0 (antibody, human IgG1, kappa)
heavy 1: not shown
heavy 2: not shown
light: B1 light
notes: also called He Ab I336_06M
B17: GpH7-A5/GpH7-B3 variant I332_13S/GpL16-k0 (antibody, human IgG1, kappa)
heavy 1: not shown
heavy 2: not shown
light: B1 light
notes: also called He Ab I332_13S
B18: GpH7-A5/GpH7-B3 variant H268_10E/GpL16-k0 (antibody, human IgG1, kappa)
heavy 1: not shown
heavy 2: not shown
light: B1 light
notes: also called He Ab H268_10E
B19: GpH7-A5/GpH7-B3 variant G236_10E/GpL16-k0 (antibody, human IgG1, kappa)
heavy 1: not shown
heavy 2: not shown
light: B1 light
notes: also called He Ab G236_10E
B20: GpH7-A5/GpH7-B3 variant I332_03V/GpL16-k0 (antibody, human IgG1, kappa)
heavy 1: not shown
heavy 2: not shown
light: B1 light
notes: also called He Ab I332_03V
B21: GpH7-A5/GpH7-B3 variant H268_13S/GpL16-k0 (antibody, human IgG1, kappa)
heavy 1: not shown
heavy 2: not shown
light: B1 light
notes: also called He Ab H268_13S
B22: GpH7-A5/GpH7-B3 variant I332_06M/GpL16-k0 (antibody, human IgG1, kappa)
heavy 1: not shown
heavy 2: not shown
light: B1 light
notes: also called He Ab I332_06M
B23: GpH7-A5/GpH7-B3 variant I332_04F/GpL16-k0 (antibody, human IgG1, kappa)
heavy 1: not shown
heavy 2: not shown
light: B1 light
notes: also called He Ab I332_04F

molecular target: T1, FcγRIIa H; assay: SPR Biacore, relative binding

| Ho/Con_2aH | He/Con_2aH | Binder |
| --- | --- | --- |
| 103 % of GpH7-B3/GpL16-k0 (=100) |  | B1 |
|  | 111 % of GpH7-A5/GpH7-B3/GpL16-k0 (=100) | B2 |
|  | 110 % of GpH7-A5/GpH7-B3/GpL16-k0 (=100) | B3 |
|  | 115 % of GpH7-A5/GpH7-B3/GpL16-k0 (=100) | B4 |
|  | 108 % of GpH7-A5/GpH7-B3/GpL16-k0 (=100) | B5 |
|  | 112 % of GpH7-A5/GpH7-B3/GpL16-k0 (=100) | B6 |
|  | 118 % of GpH7-A5/GpH7-B3/GpL16-k0 (=100) | B7 |
|  | 108 % of GpH7-A5/GpH7-B3/GpL16-k0 (=100) | B8 |
|  | 133 % of GpH7-A5/GpH7-B3/GpL16-k0 (=100) | B9 |
|  | 108 % of GpH7-A5/GpH7-B3/GpL16-k0 (=100) | B10 |
|  | 109 % of GpH7-A5/GpH7-B3/GpL16-k0 (=100) | B11 |
|  | 115 % of GpH7-A5/GpH7-B3/GpL16-k0 (=100) | B12 |
|  | 119 % of GpH7-A5/GpH7-B3/GpL16-k0 (=100) | B13 |
|  | 106 % of GpH7-A5/GpH7-B3/GpL16-k0 (=100) | B14 |
|  | 115 % of GpH7-A5/GpH7-B3/GpL16-k0 (=100) | B15 |
|  | 106 % of GpH7-A5/GpH7-B3/GpL16-k0 (=100) | B16 |
|  | 110 % of GpH7-A5/GpH7-B3/GpL16-k0 (=100) | B17 |
|  | 124 % of GpH7-A5/GpH7-B3/GpL16-k0 (=100) | B18 |
|  | 111 % of GpH7-A5/GpH7-B3/GpL16-k0 (=100) | B19 |
|  | 105 % of GpH7-A5/GpH7-B3/GpL16-k0 (=100) | B20 |
|  | 112 % of GpH7-A5/GpH7-B3/GpL16-k0 (=100) | B21 |
|  | 110 % of GpH7-A5/GpH7-B3/GpL16-k0 (=100) | B22 |
|  | 104 % of GpH7-A5/GpH7-B3/GpL16-k0 (=100) | B23 |
